Test results as given in patent publication US10995119B2, “Peptide exhibiting hydrolytic activity and use thereof” (Okinawa Institute of Science and Technology School …, priority 2016, dated 2021).

How the values were obtained:
[1] = biological target: Aβ28-42 (Homo sapiens, UniProt P05067); experiment: Hydrolysis activity against Aβ28-42; type: biochemical
[2] = test system: Aβ1-20 and Aβ11-29; experiment: Reaction rates / Km for Aβ1-20 and Aβ11-29; type: biochemical; conditions: Aβ-F 0.05, 0.2 or 0.4 mmol/l, 0 or 1 hour
Description: HPLC was performed with the Aβ-F concentration in a reaction solution being set to 0.05, 0.2, or 0.4 mmol/l and a reaction time being set to 0 hours or 1 hour. Then, on the basis of the reduction rate of the peak of each Aβ-F, the Km value was determined.

[3] = biological target: T1, Aβ11-29 (Homo sapiens, UniProt P05067); experiment: Hydrolysis activity against Aβ11-29
Description: (§4) Further, any change in activity caused by addition of human serum albumin (HSA, Wako Pure Chemical Industries, Ltd., final concentration 0.025%) also was measured.
(§5) As substrates, Aβ42 in the form of soluble powder (authentic sample, Peptide Institute Inc.) and fragment peptides thereof, namely, Aβ1-20, Aβ11-29, and soluble Aβ28-42, were used. […] In the case of MS analysis, the MS analysis was performed after applying 20 μl of the reaction solution to HPLC and collecting an aliquot of the peak.
As a substrate, Aβ11-29, which is a fragment peptide of Aβ42, was used. […] In the case of MS analysis, the MS analysis was performed after applying 20 μl of the reaction solution after the reaction for 6 days to HPLC and collecting an aliquot of the peak.
(§6) The present experiment examined activity against Aβ-Fs in Example 7.
The reaction solution V shown in FIG. 52 was incubated at 37° C. for a predetermined time, and autodigestion of ANA-YA4 (YRMI) and cleavage of Aβ11-29 were examined.
A reaction solution VI shown in FIG. 52 was incubated at 37° C. for a predetermined time, and cleavage of Aβ1-20 and Aβ11-29 by ANA-SA5 was examined.
(§7) As substrates, the same Aβ1-20 and Aβ11-29 as used in Example 7 were used.
The present example examined autodigestion and activity against Aβ-F of JAL 12-17 (YKGSGF) and JAL 12-16 (YKGSG). […] As a substrate, the same Aβ11-29 as used in Example 7 was used. The autodigestion was examined by causing the reaction in the same manner, except that the substrate was not added.

[4] = biological target: Aβ1-20 (Homo sapiens, UniProt P05067); experiment: Hydrolysis activity against Aβ1-20
Description: as §4, §5, §6, §7

[5] = biological target: Aβ42 (Homo sapiens, UniProt P05067); experiment: Intermolecular interaction with Aβ42 (AFFINX QNμ); type: binding; conditions: JAL-TA9 immobilized on platinum electrode
Text: (§1) Intermolecular interactions of JAL-TA9 with Aβ42 and with Aβ-F were examined using an AFFINX QNμ (trade name, INITIUM, Inc.) in accordance with its protocol. The results obtained are shown in the graphs of FIG. 40. In FIG. 40, X indicates the result obtained when JAL-TA9 was not immobilized on a platinum electrode, and Y indicates the result obtained when JAL-TA9 was immobilized on the platinum electrode.

[6] = biological target: soluble Aβ1-42 (Aβ42 authentic sample) (Homo sapiens, UniProt P05067); experiment: Hydrolysis activity against soluble Aβ1-42 (authentic sample)
Description: as §5
Aβ42 was used as a substrate. […] In the case of MS analysis, the MS analysis was performed after applying 20 μl of the reaction solution after the reaction for 7 days to HPLC and collecting an aliquot of the peak.

[7] = biological target: T1, Aβ11-29; experiment: Intermolecular interaction with Aβ11-29 (AFFINX QNμ); type: binding; conditions: JAL-TA9 immobilized on platinum electrode
Text: as §1

[8] = biological target: solid (insoluble) Aβ1-42 (Homo sapiens, UniProt P05067); experiment: Hydrolysis activity against solid (insoluble) Aβ1-42
Description: As a solid substrate, a crystal of Aβ42 was used. […] In the case of MS analysis, the MS analysis was performed after applying 100 μl of the reaction solution to HPLC and collecting an aliquot of the peak.

[9] = Autodigestion of the catalytic peptide (HPLC, MS); type: biochemical
Description: First, to a buffer solution (Tris-HCl, pH 6.5, final concentration: 100 mmol/l), JAL (final concentration: 0.2 mmol/l) and the fragment peptide of hMMP7 (final concentration 0.05 mmol/l) were added. […] Thereafter, the reaction solution was subjected to HPLC, and the peaks of JAL and the fragment peptide of hMMP7 were examined. HPLC was performed under the following conditions.
Next, the mechanism of autodigestion was examined using various mutants of JAL as hydrolytic peptides. To a reaction solution containing each of the mutants of JAL, a protease inhibitor (trade name: Roche cOmplete, Roche) was added to cause a reaction. One tablet of the protease inhibitor was dissolved in 1 ml of Milli-Q water, and then, 50 μl of the resultant mixture was added to the reaction solution. […] As a result, the autodigestion of all the peptides subjected to the measurement was inhibited (FIG. 16).
Autodigestion in Box B was examined.
JAL-TA9 was reacted in the same manner except that a substrate was not added to examine the autodigestion of JAL-TA9.
The influence of an inhibitor on autodigestion of JAL-TA9 was examined. […] As the protease inhibitor, the serine protease inhibitor AEBSF, which inhibited the autodigestion of JAL 12-22 C19M in the item (6) in Example 4, was used.

[10] = biological target: T2, αA-crystallin (Homo sapiens, UniProt P02489); experiment: Degradation of αA-crystallin 71-88 fragment peptide; type: biochemical
T2 construct: consisting of 71-88 residues of αA-crystallin; made in house; host or cells: chemical synthesis (Setsunan University)
Text: As a substrate, a fragment peptide with the following sequence consisting of 71-88 residues of αA-crystallin (synthesized in Setsunan University) was used.

[11] = biological target: Tau MBD 1-30 (Homo sapiens, UniProt P10636); experiment: Hydrolysis activity against Tau MBD 1-30; type: biochemical
Chain of Tau MBD 1-30 (P10636 609-638 limits assumed): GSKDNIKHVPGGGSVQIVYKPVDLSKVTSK
Text: As a substrate, a Tau microtubule binding domain (MBD)-derived fragment (Tau MBD1-30) was used.

[12] = biological target: T3, human serum albumin (HSA) (Homo sapiens, UniProt P02768); experiment: Cleavage of HSA as substrate; type: biochemical; conditions: HSA 0.025%
T3 construct: purchased Wako Pure Chemical Industries, Ltd
Description: (§2) On the other hand, by adding either HSA or BSA to the reaction solution, autodigestion of JAL 7-22 C 19M was […]. […] Since serum albumin is present in the body, it is considered that the hydrolytic peptide is suitable for use in the body. In experiments to be described below, the hydrolysis activity of JAL was measured in a reaction solution containing HSA.

[13] = biological target: SOD1 2-38 (Homo sapiens, UniProt P00441); experiment: Hydrolysis activity against SOD1 2-38; type: biochemical; conditions: Example 3 (1); substrate SOD1 2-38 or SOD1 2-12
Chain of SOD1 2-38 (P00441 2-38 limits assumed): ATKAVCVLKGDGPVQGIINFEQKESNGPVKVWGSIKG
Description: As a control, physiological saline (0.9 w/v %) was used instead of the buffer solution. […] Also, it is considered that physiological saline is suitable for storage of JAL before use, for example.
Next, an experiment was conducted to consider an optimal pH for activity using JAL as the hydrolytic peptide and SOD1 2-38 as a substrate.
Metal ions to be added to a reaction solution were Zn^2+, Ca^2+, Co^2+, or combinations thereof. The concentrations of the metal ions in the respective reaction solutions were as follows: 10 mmol/l for Ca^2+; and 5 μmol/l for the other metal ions.
(§3) In JAL 1-22 C19M and JAL 7-22 C19M, Cys residues contained in JAL form S—S bonds during a reaction, and this makes fragment analysis difficult. On this account, JAL 1-22 and JAL 7-22 were modified so as to substitute Cys residues by Met.

[14] = biological target: T4, bovine serum albumin (BSA) (Bos taurus, UniProt P02769); experiment: Cleavage of BSA as substrate; type: biochemical; conditions: BSA 0.025%
T4 construct: purchased Wako Pure Chemical Industries, Ltd
T4 sequence (P02769 25-607): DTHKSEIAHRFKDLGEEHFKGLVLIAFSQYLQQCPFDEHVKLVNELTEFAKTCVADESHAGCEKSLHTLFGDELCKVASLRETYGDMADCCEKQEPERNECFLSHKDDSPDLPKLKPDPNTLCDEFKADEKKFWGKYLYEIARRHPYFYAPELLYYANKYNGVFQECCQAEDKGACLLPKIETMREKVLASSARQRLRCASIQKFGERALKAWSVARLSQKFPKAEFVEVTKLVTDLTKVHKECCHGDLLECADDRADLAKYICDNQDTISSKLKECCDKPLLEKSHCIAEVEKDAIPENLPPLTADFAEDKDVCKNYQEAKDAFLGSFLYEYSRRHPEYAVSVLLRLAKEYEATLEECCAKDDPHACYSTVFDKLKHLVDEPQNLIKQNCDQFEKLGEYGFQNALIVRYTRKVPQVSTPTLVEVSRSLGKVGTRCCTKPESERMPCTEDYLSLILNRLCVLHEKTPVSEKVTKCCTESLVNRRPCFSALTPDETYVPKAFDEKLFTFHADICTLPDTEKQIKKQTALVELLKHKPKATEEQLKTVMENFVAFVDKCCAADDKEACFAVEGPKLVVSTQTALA
Description: as §2

[15] = biological target: SOD1 2-12 (Homo sapiens, UniProt P00441); experiment: Hydrolysis activity against SOD1 2-12; type: biochemical; conditions: Example 3 (1); substrate SOD1 2-38 or SOD1 2-12
Text: as §3

[16] = reaction solution composition 1 (PBS, HSA), 37° C., overnight

Sequence: PYKGSGFRMI [JAL-TA9]
- cleavage sites in Aβ-Fs (MS) ([1]; Example 7): cleaved at a plurality of sites
- degradation of Aβ-Fs (HPLC) [1, 16]: degraded all the Aβ-Fs
- Km value, affinity of substrate to peptide [2]: Aβ11-29 has higher affinity to JAL-TA9 than Aβ1-20
- cleavage sites in Aβ-Fs (MS) ([3]; Example 7): cleaved at a plurality of sites
- degradation of Aβ-Fs (HPLC) [3, 16]: degraded all the Aβ-Fs
- cleavage sites in Aβ-Fs (MS) ([4]; Example 7): cleaved at a plurality of sites
- degradation of Aβ-Fs (HPLC) [4, 16]: degraded all the Aβ-Fs
- intermolecular interaction [5]: strong interaction
- degradation of Aβ42 (HPLC) ([6]; authentic sample Aβ42, reaction solution composition 1): degraded both types of Aβ42
- cleavage sites in Aβ42 (MS) ([6]; soluble authentic sample, 7 days): cleaved at a plurality of sites
- region of Aβ42 cleaved ([6]; summary of cleavage sites, FIG. 39): strong cleavage activity was exhibited against an intermediate region of Aβ42
- intermolecular interaction [7]: strong interaction
- cleavage of solid Aβ42 (MS) ([8]; solid Aβ42): activity against the solid Aβ42 also was observed
- degradation of Aβ42 (HPLC) ([8]; solid Aβ42, reaction solution composition 2): degraded both types of Aβ42
- autodigestion in presence of protease inhibitor ([9]; AEBSF 6 mmol/l): autodigestion was inhibited
- autodigestion ([9]; Example 7, substrate not added): autodigestion of JAL-TA9 was observed
- autodigestion ([9]; Example 13, with αA-crystallin fragment): digested itself
- autodigestion in presence of protease inhibitor ([9]; reaction solution IV, 6 hours): inhibited by the protease inhibitor
- fragment identification by MS [10]: fragments of αA-crystallin resulting from the cleavage by JAL-TA9 were detected
- degradation of αA-crystallin ([10]; JAL-TA9 0.2 mmol/l, PBS, HSA, reaction for 1 day): could degrade αA-crystallin
- fragment identification by MS ([11]; reaction for 1 day): fragments of Tau MBD 1-30 resulting from the cleavage by JAL-TA9
- fragment identification by MS ([11]; reaction for 5 days): fragments of Tau MBD 1-30 resulting from the cleavage by JAL-TA9
- degradation of Tau MBD 1-30 (HPLC) ([11]; reaction solution composition 3, 37° C., overnight): degraded Tau MBD 1-30

Sequence: YPEKPYKGSGFRMIHI [JAL 7-22 C19M]
- cleavage of albumin as substrate [12]: cleavage by JAL was not observed
- hydrolysis activity of JAL mutants [13]: exhibited hydrolysis activity
- hydrolysis activity against Aβ1-20 ([4]; Example 3 (2), (6)): exhibited activity
- cleavage of albumin as substrate [14]: cleavage by JAL was not observed
- autodigestion in presence of protease inhibitor ([9]; HSA added, Roche cOmplete or AEBSF): fragments generated by autodigestion disappeared
- autodigestion, effect of albumin ([9]; HSA or BSA (0.025%) added): enhanced
- hydrolysis activity of JAL mutants [15]: exhibited hydrolysis activity
